Results reported in patent publication US20240400618A1 (GRIFOLS DIAGNOSTIC SOLUTIONS, published 2024).
Read-outs that look alike come from different tables or passages of the source.

B1: pxENBCP23_hACE2_3A-mIgG(23) (Fc fusion)
chain: QSTIEEQAKTFLDKFNHEAEDLFYQSSLASWNYNTNITEENVQNMNNAGDKWSAFLKEQSTLAQMYPLQEIQNLTVKLQLQALQQNGSSVLSEDKSKRLNTILNTMSTIYSTGKVCNPDAPAECLLLEPGLNEIMANSLDYNERLWAWESWRSEVGKALRPLYEEYVVLKNEMARANHYEDYGDYWRGDYEVNGVDGYDYSRGQLIEDVEHTFEEIKPLYEHLHAYVRAKLMNAYPSYISPIGCLPAHLLGDMWGRFWTNLYSLTVPFGQKPNIDVTDAMVDQAWDAQRIFKEAEKFFVSVGLPNMTQGFWENSMLTDPGNVQKAVCHPTAWDLGKGDFRILMCTKVTMDDFLTAHHEMGHIQYDMAYAAQPFLLRNGANEGFHEAVGEIMSLSAATPKHLKSIGLLSPDFQEDNETEINFLLKQALTIVGTLPFTYMLEKWRWMVFKGEIPKDQWMKKWWEMKREIVGVVEPVPHDETYCDPASLFHVSNDYSFIRYYTRTLYQFQFQEALCQAAKHEGPLHKCDISNSTEAGQKLFNMLRLGKSEPWTLALENVVGAKNMNVRPLLNYFEPLFTWLKDQNKNSFVGWSTDWSPYADVPEVSSVFIFPPKPKDVLTITLTPKVTCVVVDISKDDPEVQFSWFVDDVEVHTAQTQPREEQFNSTFRSVSELPIMHQDWLNGKEFKCRVNSAAFPAPIEKTISKTKGRPKAPQVYTIPPPKEQMAKDKVSLTCMITDFFPEDITVEWQWNGQPAENYKNTQPIMNTNGSYFVYSKLNVQKSNWEAGNTFTCSVLHEGLHNHHTEKSLSHSPGK
B2: pxEBNCP22_hACE2_3A-mIgG(h23) (Fc fusion)
chain: QSTIEEQAKTFLDKFNHEAEDLFYQSSLASWNYNTNITEENVQNMNNAGDKWSAFLKEQSTLAQMYPLQEIQNLTVKLQLQALQQNGSSVLSEDKSKRLNTILNTMSTIYSTGKVCNPDAPAECLLLEPGLNEIMANSLDYNERLWAWESWRSEVGKALRPLYEEYVVLKNEMARANHYEDYGDYWRGDYEVNGVDGYDYSRGQLIEDVEHTFEEIKPLYEHLHAYVRAKLMNAYPSYISPIGCLPAHLLGDMWGRFWTNLYSLTVPFGQKPNIDVTDAMVDQAWDAQRIFKEAEKFFVSVGLPNMTQGFWENSMLTDPGNVQKAVCHPTAWDLGKGDFRILMCTKVTMDDFLTAHHEMGHIQYDMAYAAQPFLLRNGANEGFHEAVGEIMSLSAATPKHLKSIGLLSPDFQEDNETEINFLLKQALTIVGTLPFTYMLEKWRWMVFKGEIPKDQWMKKWWEMKREIVGVVEPVPHDETYCDPASLFHVSNDYSFIRYYTRTLYQFQFQEALCQAAKHEGPLHKCDISNSTEAGQKLFNMLRLGKSEPWTLALENVVGAKNMNVRPLLNYFEPLFTWLKDQNKNSFVGWSTDWSPYADVPRDCGCKPCICTVPEVSSVFIFPPKPKDVLTITLTPKVTCVVVDISKDDPEVQFSWFVDDVEVHTAQTQPREEQFNSTFRSVSELPIMHQDWLNGKEFKCRVNSAAFPAPIEKTISKTKGRPKAPQVYTIPPPKEQMAKDKVSLTCMITDFFPEDITVEWQWNGQPAENYKNTQPIMNTNGSYFVYSKLNVQKSNWEAGNTFTCSVLHEGLHNHHTEKSLSHSPGK
B3: pxEBNCP18_hACE2-AAA_p53 (receptor)
chain: QSTIEEQAKTFLDKFNHEAEDLFYQSSLASWNYNTNITEENVQNMNNAGDKWSAFLKEQSTLAQMYPLQEIQNLTVKLQLQALQQNGSSVLSEDKSKRLNTILNTMSTIYSTGKVCNPDAPAECLLLEPGLNEIMANSLDYNERLWAWESWRSEVGKALRPLYEEYVVLKNEMARANHYEDYGDYWRGDYEVNGVDGYDYSRGQLIEDVEHTFEEIKPLYEHLHAYVRAKLMNAYPSYISPIGCLPAHLLGDMWGRFWTNLYSLTVPFGQKPNIDVTDAMVDQAWDAQRIFKEAEKFFVSVGLPNMTQGFWENSMLTDPGNVQKAVCHPTAWDLGKGDFRILMCTKVTMDDFLTAHHEMGHIQYDMAYAAQPFLLRNGANEGFHEAVGEIMSLSAATPKHLKSIGLLSPDFQEDNETEINFLLKQALTIVGTLPFTYMLEKWRWMVFKGEIPKDQWMKKWWEMKREIVGVVEPVPHDETYCDPASLFHVSNDYSFIRYYTRTLYQFQFQEALCQAAKHEGPLHKCDISNSTEAGQKLFNMLRLGKSEPWTLALENVVGAKNMNVRPLLNYFEPLFTWLKDQNKNSFVGWSTDWSPYADGGGSKPLDGEYFTLQIRGRERFEMFRELNEALELKDAQAGKEPG
B4: pxEBNCP9_hIL2-hACE2(18-615) (receptor)
chain: QSTIEEQAKTFLDKFNHEAEDLFYQSSLASWNYNTNITEENVQNMNNAGDKWSAFLKEQSTLAQMYPLQEIQNLTVKLQLQALQQNGSSVLSEDKSKRLNTILNTMSTIYSTGKVCNPDAPAECLLLEPGLNEIMANSLDYNERLWAWESWRSEVGKALRPLYEEYVVLKNEMARANHYEDYGDYWRGDYEVNGVDGYDYSRGQLIEDVEHTFEEIKPLYEHLHAYVRAKLMNAYPSYISPIGCLPAHLLGDMWGRFWTNLYSLTVPFGQKPNIDVTDAMVDQAWDAQRIFKEAEKFFVSVGLPNMTQGFWENSMLTDPGNVQKAVCHPTAWDLGKGDFRILMCTKVTMDDFLTAHHEMGHIQYDMAYAAQPFLLRNGANEGFHEAVGEIMSLSAATPKHLKSIGLLSPDFQEDNETEINFLLKQALTIVGTLPFTYMLEKWRWMVFKGEIPKDQWMKKWWEMKREIVGVVEPVPHDETYCDPASLFHVSNDYSFIRYYTRTLYQFQFQEALCQAAKHEGPLHKCDISNSTEAGQKLFNMLRLGKSEPWTLALENVVGAKNMNVRPLLNYFEPLFTWLKDQNKNSFVGWSTDWSPYAD
B5: pxEBNCP19_mIgGHC_hACE2-3A (receptor)
chain: QSTIEEQAKTFLDKFNHEAEDLFYQSSLASWNYNTNITEENVQNMNNAGDKWSAFLKEQSTLAQMYPLQEIQNLTVKLQLQALQQNGSSVLSEDKSKRLNTILNTMSTIYSTGKVCNPDAPAECLLLEPGLNEIMANSLDYNERLWAWESWRSEVGKALRPLYEEYVVLKNEMARANHYEDYGDYWRGDYEVNGVDGYDYSRGQLIEDVEHTFEEIKPLYEHLHAYVRAKLMNAYPSYISPIGCLPAHLLGDMWGRFWTNLYSLTVPFGQKPNIDVTDAMVDQAWDAQRIFKEAEKFFVSVGLPNMTQGFWENSMLTDPGNVQKAVCHPTAWDLGKGDFRILMCTKVTMDDFLTAHHEMGHIQYDMAYAAQPFLLRNGANEGFHEAVGEIMSLSAATPKHLKSIGLLSPDFQEDNETEINFLLKQALTIVGTLPFTYMLEKWRWMVFKGEIPKDQWMKKWWEMKREIVGVVEPVPHDETYCDPASLFHVSNDYSFIRYYTRTLYQFQFQEALCQAAKHEGPLHKCDISNSTEAGQKLFNMLRLGKSEPWTLALENVVGAKNMNVRPLLNYFEPLFTWLKDQNKNSFVGWSTDWSPYAD
B6: pxEBNCP25_hACE2-AAA(1-615) (receptor)
chain: QSTIEEQAKTFLDKFNHEAEDLFYQSSLASWNYNTNITEENVQNMNNAGDKWSAFLKEQSTLAQMYPLQEIQNLTVKLQLQALQQNGSSVLSEDKSKRLNTILNTMSTIYSTGKVCNPDAPAECLLLEPGLNEIMANSLDYNERLWAWESWRSEVGKALRPLYEEYVVLKNEMARANHYEDYGDYWRGDYEVNGVDGYDYSRGQLIEDVEHTFEEIKPLYEHLHAYVRAKLMNAYPSYISPIGCLPAHLLGDMWGRFWTNLYSLTVPFGQKPNIDVTDAMVDQAWDAQRIFKEAEKFFVSVGLPNMTQGFWENSMLTDPGNVQKAVCHPTAWDLGKGDFRILMCTKVTMDDFLTAHHEMGHIQYDMAYAAQPFLLRNGANEGFHEAVGEIMSLSAATPKHLKSIGLLSPDFQEDNETEINFLLKQALTIVGTLPFTYMLEKWRWMVFKGEIPKDQWMKKWWEMKREIVGVVEPVPHDETYCDPASLFHVSNDYSFIRYYTRTLYQFQFQEALCQAAKHEGPLHKCDISNSTEAGQKLFNMLRLGKSEPWTLALENVVGAKNMNVRPLLNYFEPLFTWLKDQNKNSFVGWSTDWSPYAD
B7: pxEBNCP10_tPa-hACE2(18-615)-AAA (receptor)
chain: QSTIEEQAKTFLDKFNHEAEDLFYQSSLASWNYNTNITEENVQNMNNAGDKWSAFLKEQSTLAQMYPLQEIQNLTVKLQLQALQQNGSSVLSEDKSKRLNTILNTMSTIYSTGKVCNPDAPAECLLLEPGLNEIMANSLDYNERLWAWESWRSEVGKALRPLYEEYVVLKNEMARANHYEDYGDYWRGDYEVNGVDGYDYSRGQLIEDVEHTFEEIKPLYEHLHAYVRAKLMNAYPSYISPIGCLPAHLLGDMWGRFWTNLYSLTVPFGQKPNIDVTDAMVDQAWDAQRIFKEAEKFFVSVGLPNMTQGFWENSMLTDPGNVQKAVCHPTAWDLGKGDFRILMCTKVTMDDFLTAHHEMGHIQYDMAYAAQPFLLRNGANEGFHEAVGEIMSLSAATPKHLKSIGLLSPDFQEDNETEINFLLKQALTIVGTLPFTYMLEKWRWMVFKGEIPKDQWMKKWWEMKREIVGVVEPVPHDETYCDPASLFHVSNDYSFIRYYTRTLYQFQFQEALCQAAKHEGPLHKCDISNSTEAGQKLFNMLRLGKSEPWTLALENVVGAKNMNVRPLLNYFEPLFTWLKDQNKNSFVGWSTDWSPYAD
B8: pxEBNCP15_hACE2-AAA-StrepTagII (receptor)
chain: QSTIEEQAKTFLDKFNHEAEDLFYQSSLASWNYNTNITEENVQNMNNAGDKWSAFLKEQSTLAQMYPLQEIQNLTVKLQLQALQQNGSSVLSEDKSKRLNTILNTMSTIYSTGKVCNPDAPAECLLLEPGLNEIMANSLDYNERLWAWESWRSEVGKALRPLYEEYVVLKNEMARANHYEDYGDYWRGDYEVNGVDGYDYSRGQLIEDVEHTFEEIKPLYEHLHAYVRAKLMNAYPSYISPIGCLPAHLLGDMWGRFWTNLYSLTVPFGQKPNIDVTDAMVDQAWDAQRIFKEAEKFFVSVGLPNMTQGFWENSMLTDPGNVQKAVCHPTAWDLGKGDFRILMCTKVTMDDFLTAHHEMGHIQYDMAYAAQPFLLRNGANEGFHEAVGEIMSLSAATPKHLKSIGLLSPDFQEDNETEINFLLKQALTIVGTLPFTYMLEKWRWMVFKGEIPKDQWMKKWWEMKREIVGVVEPVPHDETYCDPASLFHVSNDYSFIRYYTRTLYQFQFQEALCQAAKHEGPLHKCDISNSTEAGQKLFNMLRLGKSEPWTLALENVVGAKNMNVRPLLNYFEPLFTWLKDQNKNSFVGWSTDWSPYADGGSGWSHPQFEK

Tests used:
pxENB17-RBD-His [1] = target: T1, pxENB17-RBD-His (SARS-CoV-2, UniProt P0DTC2 319-541)
pxENB9-FLS-CT-His [2] = target: T2, pxENB9-FLS-CT-His (SARS-CoV-2, UniProt P0DTC2 15-1213)
pxENB17-RBD-His [3] = target: T1, pxENB17-RBD-His; remark: listed apart in the source
pxENB17-RBD-His [4] = target: T1, pxENB17-RBD-His; experiment: BLI (Octet), ACE2 construct loaded on SA tips by its tag, RBD as analyte
pxENB9-FLS-CT-His [5] = target: T2, pxENB9-FLS-CT-His; remark: listed apart in the source

| Binder | Kd (pxENB17-RBD-His [1]) | Kd (pxENB9-FLS-CT-His [2]) | also measured |
| --- | --- | --- | --- |
| B1 | 24.5 nM | 38.7 nM |  |
| B2 | 0.953 nM | 0.001 nM |  |
| B3 | 0.001 nM | 0.001 nM |  |
| B4 | 45.1 nM |  |  |
| B5 | 56.2 nM |  |  |
| B6 | 73.3 nM |  |  |
| B7 | 60.8 nM |  |  |
| B8 |  |  | Kd (pxENB17-RBD-His [3]): 110 nM; Response, shift in Wavelength (nm) (pxENB17-RBD-His [4]): 0.0062 nm; Kd (pxENB9-FLS-CT-His [5]): 4710 nM |
